Patent publication US20210145921A1, “COMPOSITION COMPRISING VEGF ANTAGONISTS AND A CATIONIC PEPTIDE AND USES THEREOF” (UCL BUSINESS LTD, priority 2017, published 2021)

Legend:
[1] = test system: HCE-S corneal epithelial barrier; assay: in vitro HCE-S transwell transcytosis assay (Papp); format: in vitro ADME, human; conditions: for enhancement of delivery of Lucentis across the HCE-S barrier: Papp
Method: HCE-S barrier models for transcytosis assays were prepared using an adaptation of a previously described method.^[1] HCE-S cells (5×10^4 cells/well) were seeded on transwell inserts (poly-carbonate, 3 μm pore size, 1.13 cm^2) and maintained for 7 days refreshing the medium in the apical and basal chambers every second day. After this time cells were cultured for a further 10 days at an apical air interface to encourage development of a multilayer barrier. Prior to each experiment culture medium was replaced with phenol red free DMEM and barrier integrity measured via transepithelial resistance (TER). TER values were obtained in the range 300-600 Ωcm^2 and only epithelial barriers with TERs>300 Ω·cm^2, the accepted threshold for tight epithelial barriers, were used for transcytosis experiments.
Permeation studies were conducted to determine the rate of anti-VEGF transcytosis in the presence/absence of varying concentrations of R8. Experiments were initiated by adding 1.5 ml serum- and phenol red-free DMEM to the basal chamber and 0.5 ml to the apical chamber containing 0.1 mg/mL Avastin or Lucentis in the presence of varying molar ratios of R8. After 3 h, 100 μl of medium was withdrawn from the basal chamber and the concentration of anti-VEGF in the basal chamber was determined using established and commercially available sandwich ELISA techniques (KPL Protein Detector HRP Microwell Kit, Anti-Human Cat #54-62-10 with Jackson Immuno Research AffiniPure Rabbit Anti-Human IgG capture antibody).^[1] […] The permeability coefficient (Papp) of each anti-VEGF was determined as previously described^[1] using equation 1;
where CR is the final concentration of anti-VEGF recovered from the ELISA assay, CD is the initial concentration of anti-VEGFs added to the assay, tmin is the transcytosis time (180 min), VR is the volume of the receiving chamber (1.5 ml) and A represents the filter area (1.12 cm^2).
Lucentis (+/−Steryl-R8) were applied to the Apical chamber and the concentration crossing the barrier was determined from the basolateral chamber at different timepoints using a Lucentis sandwich ELISA. Intact HCE-S barrier was confirmed by measuring transepithelial resistance (>[…]) before each assay.

HCE-S cells = assay: AlamarBlue cell viability assay; format: cell-based, human; conditions: 24 h exposure, up to 200/1 molar ratio
Method: HCE-S monolayers for uptake assays were prepared by seeding 96 well plates with 1×10^4 cells/well and maintaining for 5 days replacing the medium every other day. After this time, medium was replaced with that containing 100 μM calcein loaded PLVs in the presence or absence of 200 nM AnxA5. Cells were incubated with PLVs at 37° C. for 3 h protected from light. Epithelial monolayers were then washed three times in ice cold PBS (with calcium and magnesium) to remove free PLVs, followed by a single wash in ice cold isosmotic citrate buffer (pH 3) to remove surface bound PLVs before applying a PBS wash containing 1% Triton X-100 to solubilise membranes. Upon completion of each washing step, calcein fluorescence was measured using a 485 nm excitation and 515 nm emission with a SAFIRE micro plate reader (TECAN) HCE-S monolayers for viability assays were prepared by seeding 96 well plates with 1×10^4 cells/well and maintaining for 24 h at 37° C. in a humidified incubator with 5% CO2. […] Cells were incubated with anti-VEGF/R8 solutions for 24 h before viability of HCE-S cells in response to was assessed using the AlamarBlue (Invitrogen) cell viability assay according to manufacturers instructions. […]

[2] = dextran transcytosis assay; format: in vitro ADME
Description: The fifth experiment conducted was whether R8 affected the transport of dextrans across a membrane, FIG. 27. Dextrans are complex branched polysaccharides made of many glucose molecules. They can be composed of chains of varying lengths.

[3] = human, in vivo; cited from earlier work
rhVEGF165 = conditions: read-out: IC50, tissue factor up-regulation; cited from earlier work
[4] = in vivo rabbit study, topical instillation, anti-VEGF in eye tissue by sandwich ELISA; set-up: species or system New Zealand rabbits
Method: All animal experiments were performed in compliance with the ARVO Statement for the Use of Animals in Ophthalmic and Vision Research. New Zealand rabbits received unilateral topical instillations of 0.03 mL anti-VEGF in the presence of R8 (varying molar concentrations) either as a liquid or hydrogel formulations without anaesthesia. At the specified time after application animals were euthanized before enucleation, washing (PBS) and snap-freezing and dissection of ocular tissues. Samples were weighed and cryohomogenised before the concentration of anti-VEGF per gram of eye tissue determined using established sandwich ELISA protocols.

[5] = test system: human umbilical vein endothelial cell (HUVEC); conditions: cited from earlier work
[6] = in vivo; cited from earlier work

Molecule: N=C(N)NCCC[C@H](NC(=O)[C@H](CCCNC(=N)N)NC(=O)[C@H](CCCNC(=N)N)NC(=O)[C@H](CCCNC(=N)N)NC(=O)[C@H](CCCNC(=N)N)NC(=O)[C@H](CCCNC(=N)N)NC(=O)[C@H](CCCNC(=N)N)NC(=O)[C@@H](N)CCCNC(=N)N)C(=O)O [R8, RRRRRRRR]
- transcytosis of Lucentis, peptide alone without liposomes [1]: dramatic enhancement in transcytosis
- enhancement of delivery of Lucentis across the HCE-S barrier [1]: concentration dependent manner
- toxicity to HCE-S cells (HCE-S cells): non-toxic
- effect on transport of different sizes of dextran across a membrane [2]: made no difference

Molecule: CCCCCCCCCCCCCCCCCC(=O)N[C@@H](CCCNC(=N)N)C(=O)N[C@@H](CCCNC(=N)N)C(=O)N[C@@H](CCCNC(=N)N)C(=O)N[C@@H](CCCNC(=N)N)C(=O)N[C@@H](CCCNC(=N)N)C(=O)N[C@@H](CCCNC(=N)N)C(=O)N[C@@H](CCCNC(=N)N)C(=O)N[C@@H](CCCNC(=N)N)C(=O)O [ST-R8, Stearyl-R8]
- transcytosis of anti-VEGF (Lucentis) loaded liposomes [1]: significantly enhanced
- enhancement of delivery of Lucentis across the HCE-S barrier [1]: concentration dependent manner

Molecule: Ranibizumab [Lucentis]
- transport across the HCE-S barrier in the presence of R8 (ST-R8) [1]: aided the transport
- clinical Cmax predicted at steady state [3]: 1.7 ng/mL
- clinical Cmax, maximal individual level [3]: 2.4 ng/mL
- IC50 (rhVEGF165): 0.31 nM
- free Lucentis detected in retina ([4]; 2 h after topical instillation): ~20 ng
- concentration detected in plasma ([4]; free Lucentis, topical instillation, 2 h): < 0.1 ng/mL
- proportion of dosed free Lucentis reaching the retina by the topical route ([4]; from dosed eye versus co-eye concentration, n=10): ~30%
- Lucentis delivery to the retina ([4]; liquid formulation, 2 h, n=3): 18 ± 8 ng/g
- levels of Lucentis in the vitreous and retina/choroid ([4]; rabbit, one eye dosed, 2 hours after topical application): 10 ng/g tissue
- concentration giving total inhibition of proliferation [5]: ≥ 1.3 nM
- IC50 ([5]; read-out: IC50, VEGF-induced proliferation): < 1 nM
- half-life in the eye [6]: 173 h

Molecule: Bevacizumab [Avastin]
- transport across the HCE-S barrier in the presence of R8 (ST-R8) [1]: aided the transport
